Five molecules from PMC5113044, “Characterisation of a New Family of Carboxyl Esterases with an OsmC Domain” (PLoS ONE, 2016) can be followed below.

Where a chain is given by its changes, count along the chain named. Names may count otherwise.

Data set [1] addresses T1, ΔEstRD (Roseobacter denitrificans, UniProt Q166H3).
T1 construct: gene RD1_2563; C-terminal His6 (pEXP5-CT), E. coli BL21-AI
Nature of the data set: […] min end-point 4-nitrophenol release, […] nm. As to conditions: 1.5 mM substrate. It is filed as biochemical.

Data set [2] deals with T2, ΔEstO (Pseudoalteromonas arctica, UniProt D6CHH1).
T2 construct: gene estO; N-terminal His6 (pDEST17), E. coli BL21-AI
T2 sequence (D6CHH1 entry or part of it, stated change not applied): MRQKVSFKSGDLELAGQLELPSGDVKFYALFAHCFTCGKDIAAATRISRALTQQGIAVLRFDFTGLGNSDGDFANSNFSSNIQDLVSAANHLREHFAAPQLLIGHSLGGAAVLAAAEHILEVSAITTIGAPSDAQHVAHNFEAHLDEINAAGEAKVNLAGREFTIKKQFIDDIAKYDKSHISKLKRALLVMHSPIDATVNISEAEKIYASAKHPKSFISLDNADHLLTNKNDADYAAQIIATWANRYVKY
Nature of the data set: […] min end-point 4-nitrophenol release, […] nm. Type of data set: biochemical. The note with it: 1.5 mM substrate.

In data set [3] the target is T3, ΔEstEM (Sinorhizobium meliloti, UniProt Q92Y44).
T3 construct: gene SMa1898; N-terminal His6 (pDEST17), E. coli BL21-AI
T3 sequence (Q92Y44 entry or part of it, stated change not applied): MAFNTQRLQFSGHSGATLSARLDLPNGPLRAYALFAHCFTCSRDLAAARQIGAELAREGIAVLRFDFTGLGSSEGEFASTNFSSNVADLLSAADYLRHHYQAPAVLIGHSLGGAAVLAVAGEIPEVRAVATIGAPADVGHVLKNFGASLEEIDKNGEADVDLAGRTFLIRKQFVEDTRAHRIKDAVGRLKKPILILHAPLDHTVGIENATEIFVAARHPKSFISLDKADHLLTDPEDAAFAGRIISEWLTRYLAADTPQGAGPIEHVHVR
The data set is described as follows: […] min end-point 4-nitrophenol release, […] nm. It is filed as biochemical. The note with it: 1.5 mM substrate.

In data set [4] the target is T4, ΔEstCA (Catenulispora acidiphila, UniProt C7Q579).
T4 construct: gene Caci_7018; C-terminal His6 (pEXP5-CT), E. coli BL21-AI
T4 sequence (C7Q579 1-255): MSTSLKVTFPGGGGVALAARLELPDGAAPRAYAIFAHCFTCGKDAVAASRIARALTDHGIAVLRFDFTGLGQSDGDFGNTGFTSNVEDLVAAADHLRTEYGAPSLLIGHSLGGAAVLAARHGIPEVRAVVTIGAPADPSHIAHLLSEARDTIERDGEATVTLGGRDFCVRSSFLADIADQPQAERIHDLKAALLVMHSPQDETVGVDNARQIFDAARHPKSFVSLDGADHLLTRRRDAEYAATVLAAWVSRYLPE
The data set is described as follows: […] min end-point 4-nitrophenol release, […] nm. Type of data set: biochemical. The note with it: 1.5 mM substrate, gum arabic, universal buffer pH 5-11, 30 °C, or Tris-HCl pH 8.5, 5-50 °C.

Data set [5] has as its target T5, ΔEstLA (Roseibium aggregatum, UniProt A0NLQ8).
T5 construct: gene SIAM614_09253; N-terminal His6 (pDEST17), E. coli BL21-AI
T5 sequence (A0NLQ8 1-266): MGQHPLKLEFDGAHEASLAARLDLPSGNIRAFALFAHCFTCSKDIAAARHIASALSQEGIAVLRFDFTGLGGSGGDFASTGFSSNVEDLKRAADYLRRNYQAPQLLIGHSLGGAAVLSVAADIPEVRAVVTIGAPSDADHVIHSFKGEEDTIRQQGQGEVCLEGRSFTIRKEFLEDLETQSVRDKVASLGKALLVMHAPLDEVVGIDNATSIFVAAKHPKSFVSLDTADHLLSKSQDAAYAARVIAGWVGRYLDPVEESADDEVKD
Nature of the data set: […] min end-point 4-nitrophenol release, […] nm. Type of data set: biochemical. As to conditions: 1.5 mM substrate, gum arabic, universal buffer pH 5-11, 30 °C, or Tris-HCl pH 8.5, 5-50 °C.

Data set [6] addresses T6, ΔEstCAL (Cellulophaga algicola, UniProt E6X8P4).
T6 construct: gene Celal_0286; C-terminal His6 (pEXP5-CT), E. coli BL21-AI
Nature of the data set: […] min end-point 4-nitrophenol release, […] nm. Type of data set: biochemical. As to conditions: 1.5 mM substrate, gum arabic, universal buffer pH 5-11, 30 °C, or Tris-HCl pH 8.5, 5-50 °C.

Substrate in data set [7]: CCCCCCCC(=O)Oc1ccc([N+](=O)[O-])cc1
Nature of the data set: purified protein. It is filed as biochemical, Rhodothermus marinus. The note with it: 25 mM Tris-HCl pH 8.5, 5% acetonitrile, 0.5% Triton X-100.

Substrate in data set [8]: CCCC(=O)Oc1ccc([N+](=O)[O-])cc1
Nature of the data set: purified protein. Type of data set: biochemical, Rhodothermus marinus. The note with it: 25 mM Tris-HCl pH 8.5, 5% acetonitrile, 0.5% Triton X-100.

Substrate in data set [9]: CC(=O)Oc1ccc([N+](=O)[O-])cc1
Nature of the data set: purified protein. Type of data set: biochemical, Rhodothermus marinus. As to conditions: 25 mM Tris-HCl pH 8.5, 5% acetonitrile, 0.5% Triton X-100.

Substrate in data set [10]: CCCCCCCCCCCC(=O)Oc1ccc([N+](=O)[O-])cc1
The data set is described as follows: purified protein. It is filed as biochemical, Rhodothermus marinus. The note with it: 25 mM Tris-HCl pH 8.5, 5% acetonitrile, 0.5% Triton X-100.

Substrate in data set [11]: O=C(Oc1ccc([N+](=O)[O-])cc1)c1ccccc1
Nature of the data set: purified protein. Type of data set: biochemical, Rhodothermus marinus. The note with it: 25 mM Tris-HCl pH 8.5, 5% acetonitrile, 0.5% Triton X-100.

Substrate in data set [12]: CCCCCCCCCC(=O)Oc1ccc([N+](=O)[O-])cc1
Nature of the data set: purified protein. It is filed as biochemical, Rhodothermus marinus. As to conditions: 25 mM Tris-HCl pH 8.5, 5% acetonitrile, 0.5% Triton X-100.

Setting [13] is: gum arabic, universal buffer pH 5-11, 30 °C, or Tris-HCl pH 8.5, 5-50 °C.

T1 sequence (Q166H3 entry or part of it, stated change not applied): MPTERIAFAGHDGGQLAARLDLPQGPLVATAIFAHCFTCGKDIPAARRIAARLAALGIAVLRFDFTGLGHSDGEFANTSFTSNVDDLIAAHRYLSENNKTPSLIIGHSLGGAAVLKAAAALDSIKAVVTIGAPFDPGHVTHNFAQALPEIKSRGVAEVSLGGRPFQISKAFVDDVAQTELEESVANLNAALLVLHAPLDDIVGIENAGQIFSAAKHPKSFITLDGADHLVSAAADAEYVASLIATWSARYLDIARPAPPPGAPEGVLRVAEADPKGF
T6 sequence (E6X8P4 entry or part of it, stated change not applied): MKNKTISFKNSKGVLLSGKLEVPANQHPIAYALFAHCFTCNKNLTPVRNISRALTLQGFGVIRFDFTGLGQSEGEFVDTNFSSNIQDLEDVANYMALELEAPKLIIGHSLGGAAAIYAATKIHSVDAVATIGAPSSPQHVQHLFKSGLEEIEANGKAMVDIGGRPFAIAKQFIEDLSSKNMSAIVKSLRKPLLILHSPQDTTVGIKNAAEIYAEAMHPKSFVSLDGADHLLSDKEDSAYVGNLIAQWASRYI

`CCCCCCCCCC(=O)Oc1ccc([N+](=O)[O-])cc1` [4NP-decanoate]: the “30 min end-point 4-nitrophenol release, 410 nm” value was “ΔEstEM, ΔEstRD, and ΔEstO showed a preference for decanoate (C10)” in data set [1] (Tris-HCl pH 8.5); “ΔEstEM, ΔEstRD, and ΔEstO showed a preference for decanoate (C10)” in [2] (Tris-HCl pH 8.5); “ΔEstEM, ΔEstRD, and ΔEstO showed a preference for decanoate (C10)” in data set [3] (Tris-HCl pH 8.5).

Take `O=C(Oc1ccc([N+](=O)[O-])cc1)c1ccccc1` [4NP-benzoate]: the “30 min end-point 4-nitrophenol release, 410 nm” value in data set [4] is “optimum temperature and pH profiles of each enzyme using p-nitrophenyl benzoate as a substrate”; in data set [1] (setting [13]), “optimum temperature and pH profiles of each enzyme using p-nitrophenyl benzoate as a substrate”; in data set [2] (setting [13]), “optimum temperature and pH profiles of each enzyme using p-nitrophenyl benzoate as a substrate”; in data set [5], “optimum temperature and pH profiles of each enzyme using p-nitrophenyl benzoate as a substrate”; in data set [6] it was “optimum temperature and pH profiles of each enzyme using p-nitrophenyl benzoate as a substrate”; in data set [3] (setting [13]), “optimum temperature and pH profiles of each enzyme using p-nitrophenyl benzoate as a substrate”.

B1: ΔEstRM (Rhodothermus marinus DSM 4252; S72A) (protein)
chain: MQIKTVTFENNRGERLAARLDLPVDTQPVAYALFAHCFTCSKNLKAVTTISRALTTQGYAVLRFDFTGLGEAEGDFSETTFATNFEDLRAACRFLSAQYEPPALLIGHSLGGAAVLAVAGEFPEVKAVATIGAPCDPAHVRHLLRPALDTIKTVGEAVVDLGGRPFRIKKQFLEELERVNLEDQVRTMRRPLLLFHSPTDQIVGIENAACLFQAARHPKSFVSLDQADHLLSNSDDAAFVGEVLGAWARRYVGRR
notes: esterase domain, residues 1-255 of 410, OsmC domain removed; N-terminal His6 (pDEST17, E. coli BL21-AI; crystal text says C-terminal His6); monomer
With B1, the Km in data set [7] amounted to 660 ± 60 µM; in [8], 1050 ± 210 µM.

B2: ΔEstRM (Rhodothermus marinus DSM 4252) (protein)
chain: B1 chain with A72S
notes: as for B1
With B2, the Km in data set [9] worked out at 3540 ± 800 µM; in data set [10], 981 ± 150 µM; in [11], 244 ± 12 µM; in data set [7], 490 ± 48 µM; in data set [8], 1070 ± 170 µM; in [12], 825 ± 130 µM.

B3: EstRM (Rhodothermus marinus DSM 4252) (protein)
chain: MQIKTVTFENNRGERLAARLDLPVDTQPVAYALFAHCFTCSKNLKAVTTISRALTTQGYAVLRFDFTGLGESEGDFSETTFATNFEDLRAACRFLSAQYEPPALLIGHSLGGAAVLAVAGEFPEVKAVATIGAPCDPAHVRHLLRPALDTIKTVGEAVVDLGGRPFRIKKQFLEELERVNLEDQVRTMRRPLLLFHSPTDQIVGIENAACLFQAARHPKSFVSLDQADHLLSNSDDAAFVGEVLGAWARRYVGRRPVPDTYRLDPGEARAVVRTGRAHYRTDIAADGHALVADEPAPLGGTDAGPSPYGYLAAALGACTTITLRLYADRKGWPLEAATAYIYHEKVHLNDCTECAEQGIEQTPGGKIDRFTVELTLEGALDAAQRQRLLEIAGRCPVHRTLKSPVVTRTRLRD
notes: full length, 410 residues, His6 tag, E. coli BL21-AI; monomer
On to B3, for which the Km in [11] came out at 292 ± 31 µM; in data set [7], 309 ± 70 µM; in data set [8], 962 ± 140 µM.
